Assay results as given in the DeepSol protein solubility set.

Assay: soluble on expression in E. coli; label from the status in PepcDB or PDB records

Q: With “MAHHHHHHSLRLKEQSLQVTTKTGKESQKKTQTTAKSTITVDIKGAVKHEGVYTLPIDSRINDVIEKAGGFSEKADRKSVNLAQKLQDEAVIYVAAIGENISVIRDSQEGKTSQADKANTKETSVKGKVNLNTATLADLQTISGIGEKKAQDILDYREANGGFKSVDDLKNISGIGDKTFEKLKDLVSVDEG” as the sequence, how does the “soluble on expression in E. coli” value read?
A: soluble

Q: Which “soluble on expression in E. coli” value does the source give for “MGSDKIHHHHHHMANNNGKDKSLESWIWDAACSIRGAKDAPKYKDYILPLIFTKRLCDVFDDELNRIAAEVGSRKKAFQLAKADHKLVRFYLPLVPDDPEQPVWSVIRKLSDWIGEGVTSHMRAIARENPLLQGIIDRVDFNATTHGQRDLDDDRLSNLIEAISTKRLGLEDVEADIIGKSYEYLIRKFAEGGGQSAGEFYTPPEVGTIMSRVLQPEPGMEIYDPTCGSGGLLVKCEIAMEETAKGKKRTVAPLKLFGQEFTPETWAMANMNMIIHDMEGQIEIGDTFKNPKFRSKGKLRTFDRVVANPMWNQDWFTEADYDNDELDRFPAGAGFPGKSSADWGWVQHIHASMNATGRAAVVLDTGAASRGSGNAGTNKEKTVRQWFVDHDLIESVLYLPENLFYNTTAPGIVLFLNKAKAHERKGKVFLVNASQVFEKGDPKNFIPEAGIQRIADTLIGWVEAEKLSRIVDHAELKKNDYNISPSRYIHTSDAETYRPIAEIVEELEAIEAEAKETDQALDRILKQLGIGA” here?
A: not soluble

Q: With “MLFFETDATLALWGEAVLAATWAEFPQLARNQLALTWIVYDDPVPVNTGGAIAPQSFWSLPIRGFHYRGDEAIYPASVVKLFYLVAALEWLQQGMIQPSAELDRALRDMIVDSSNDATGYIVDLLSGTTSGPELGDGPFKTWQFQRNIVNRYYQSLMWPELQPINVNQKTWGDGPYGRERAFYGPEFENRNKLTTNATARLLHAIAGGVAVSPSASQRMLNLLNRPFDPRSLAEDPENQVTGFLGQDLPQGSQLWSKAGWMSRVRHDAAYLEIPGLPPHLLVAFTEGKEHANNEAILPFIAQQVRQQLQPALEHHHHHH” as the sequence, how does the “soluble on expression in E. coli” value read?
A: soluble

Q: Which “soluble on expression in E. coli” value does the source give for “QTLRALAERAARIEQDPAAGDYMSALRELPFIRELMAGRLPLQWAPARMVSDDPAKGLGKAPPAGLLTQQLRNILGEPRRTLDLVSPYFVPAEAGTQAFAALARGGAQVRVLTNALEATDVAVVHSGYAKRRKALLQAGVRLYEMRRSYAGPKPQGRGRFGSSGSSLHAKTFGVDGERVFIGSFNFDPRSANLNTELGFVIESPDMARHIAATFDQDIPAATYEVRLDDDGSLYWLE” here?
A: not soluble

Q: Which “soluble on expression in E. coli” value does the source give for “MGSDKIHHHHHHMKVQYECLTCMANQCQRIVEMATQDMDIRRRAMILAAKLLAKEYNENAIPAIAGSLIFLELYKFLGNDDPFIEYKLKSEEMARKVADIIKRKLKLDFELAVKLAIIGNVIDFSVGFSPEDLEEEVEKMLKDKLYIDDSKELFEEVKRAENILYITDNVGEHYFDAILIEKIREISNAEVYIAGKEGPIINDATVEDLKRAGLEKLGKVISTGTRIVGVPLKLVSREFMEAFNKADVIIAKGQGNFETLSEINDSRIFFLLKAKCPAVARELKVPKGALVCMRNKFKL” here?
A: soluble

Q: With “APVGPLGQVKLTVWYHSDEQKLISIIHSCRALRQNGRDLPDPYVSVLLLPDKNRSTKRKTPQKKRTLNPEFNERFEWDLPLDGTLRRKLDVSVKSNSSFMSRERELLGKVQLDLAEIDLSQGAAQWYDLMDDRDKGGS” as the sequence, how does the “soluble on expression in E. coli” value read?
A: soluble

Q: With “MKIVVIGATGIIGKAIVAELNPRHEIISASYKNSDIQVDITSKQSIDAMYKKLNTIDAIVLATGKVHFAALKDMGEDDYKIGLTNKLMGQVNVVLAGLEYINDNGSFTLTSGILNRDPILYGSSAAMVNGALDGFIKSAALEMPRGIRINGVSPTVITEAMENYGPYFRGYEPVSAARAALAYSKSIEGAQTGQVYCVGLEHHHHHH” as the sequence, how does the “soluble on expression in E. coli” value read?
A: not soluble

Q: For “MKANRSIACLLLAALPTLASAHVAEKVETLHDQALAEIPGHRGLMLTVSFKPGQVSAPHVHPGSVFVYVLEGTVQTQLEGGSVETYTVGQSWYEPANVPHLLARNPDPMKPAKLLVWELLKEGDPILKPLERGAH”, which “soluble on expression in E. coli” value is on record?
A: not soluble

Q: For “MSKVRVAGFSVSVDGFGAGPEQSLNDPLGKRGPEMFQWFFHTRTFRAMMGKDDGSTGIDEDYASRAMANFGAFILGRNMFGPIRGEWPDDAWKGWWGPNPPYHAPTYVLTHYPREPLVMEGGTTFHFVTGGIHQALDQAKAAAGDKDVKIGGGVATVRQYLQAGLIDELHFAVSPVVLGKGEAMFAGIDLPALDFRVTEHAASEKATHIVLAKLEHHHHHH”, which “soluble on expression in E. coli” value is on record?
A: not soluble

Q: With “QTTKRIRDQEKATALQTAEMVAEAPMTAAALESGKKQKELQSYTKRVQKITGTEFVVVMDMNGIRKTHPDPSKIGKKFRGGDESEVLKGHVHISTASGTLGKSQRAFVPVYAENGKQVGAVAVGITVNEIDEVISHSLRP” as the sequence, how does the “soluble on expression in E. coli” value read?
A: not soluble

Q: For “MDSSNYFYGGNNICIINTKWGKHSGIGGYAEIIDTLVGNFTNISSWAKIGIRDHIHTNFLICDFVYKDNDHIMPPGISSFEDYWVKIGNDVWVGTNVTILRGVEVGDGAVIAAGSVVTKSIPPYAIVGGNPAKFIKWRFPFEVREKLLEIKLEHHHHHH”, which “soluble on expression in E. coli” value is on record?
A: not soluble

Q: Which “soluble on expression in E. coli” value does the source give for “MGSDKIHHHHHHMGKKTTIAIAHSDADLGKPAEYTRDQLDLVKAMIRQIADQTMGGMGNIVHKGDKVLIKINTVIPVPANAGFTTDPRMLEALIELVQEQNPGRIQIGERCAMGADTMEAMRVCGIVDVAERTGVELCPFEHAEFDMYKIDRPISFNEFPVPRPVRDADCYIGLPKMKVHVHTTFTGAMKLQFGNLPNYDWMVRCHRDDIYQKIVNLTRAANPKWFVMDSLYACQGNGPFSPYSEDLIKDFNTICGGPDPVAVDTVCEALMDWDYPGTNVPSTVLGAAEGLGTNRMNEIELAGAPLDKVKRRFKRQNTILQGQYPNVNLVMGSTCEAGCKAIVRIQLDQLQADGTLERLEKPITIFTGLQFEEHINKVEGDVLIVGDCAKGMLEKFPDARYWGDCEEYPNCTPIWANRPDVGIANYVRQLTAVREGNAR” here?
A: not soluble

Q: With “MGSDKIHHHHHHHVETIKNTFLNPKSNKVLVVAHRGNWRSAPENSTAAIDSAIAMKVDIVEIDIQKTKDGQLILMHDNTLDRTTTGKGEIKNWTLADIKKLKLKDKDGKVTNYVVPTLEEALLTAKGKIMVNLDKAYDIFDDVYAILEKTETQNQVIMKGGQPIETVKREFGSYLDKVLYMPVIDLGNKEAEKIITDYLKELRPAAFEIIYSDPKNPLPPKIKQLLFKKSLIWYNTLWGSLAGNHDDNLALTDPEKSYGYLIEQLGARILQTDQPAYLLDYLRKKGWHN” as the sequence, how does the “soluble on expression in E. coli” value read?
A: not soluble

Q: For “MSIALLAAATSSMAQSLDKMNWLNEPQQWEIKEGKALVMDVPAKTDFWRISHYGFTVDDGPFYYATYGGEFEVKVKITGNYVTTFDQMGLMLRIDHENWIKAGVEYVDGKQNVSAVVTHRTSDWSVVQLPDAPRSLWIKAVRRLDAVEIFFSRDDKEYTMIRTCWLQDNCPVMVGLMGACPDGKGFTATFEEFKVTPLADQRRLEWAKKQADKLEHHHHHH”, which “soluble on expression in E. coli” value is on record?
A: not soluble

Q: With “MGSDKIHHHHHHMTQSDFFSLDGISKRFGVVQALDNVSIAFRPGEVLALVGENGAGKSTMMRILEGVSGPDTGTVRHGSTPIVFGEPRDSHRAGIRVIHQEPEIVPNLTVAENIFVGELPRLAGVLLDWRKLEEQTDRVLATFGMQQDMRPRQLCGTLGPAQRQMIEIMRAIRAGGRLIAFDEPTSSLTDDEARRLFSVVRRLREKGTSIIYISHRLNEIIDLADRIVVLRDGRLVDDSPAAGASEQTIAKLMVGRNIDDLFTRETWRSGEQLLDVAGLTTDRVNDVSLRVRRGEVLGIAGLMGAGRSELAKAIVGYDRRIAGTIAMNGVPVLPNSPHAAIVAGIGFAPEDRKHEALLLFRSILDNAALCVPDKTSSFGFFNRRKAMEIVSPLAAKMSIKAPNLDEQVSKLSGGNQQKVVLARWLARQPMLLILDEPTRGIDIGAKAEIYRLIDELAASGIGIILISSEMPELIGLADRVLVMAGGRITAELARPDIDEATILKHAMPQSASSPGDYIQ” as the sequence, how does the “soluble on expression in E. coli” value read?
A: not soluble

Q: For “MGSDKIHHHHHHMINSHQTQPLLRLENIEKSYGSHRILNKVSFCLYPGEITALIGDNGAGKSTLVQIISGYIQADKGNIYWQEQPLCYSNQYNAPFEMRRLGIQIVHQQLALIDELSIWRNFFLGNEINKKIGPFKFLNIRLMQHIASQSLQSFGLVCLPNIDLPVKKLSGGERQMLVVCRAKYFNAKLLILDEPTSALSPAQADKVLQIIKNIAQAGIAIVFITHNPAHIQNTAHKVIKLSCGTIEIMELTNTLIKG”, which “soluble on expression in E. coli” value is on record?
A: not soluble
